Experimental data from US20240122983A1 (SHATTUCK LABS, published 2024).
Where two headings read alike, the source gives them in different places.

T1: recombinant mouse m4-1BB protein (mouse, UniProt P20334 24-187)
T1 sequence (looked up): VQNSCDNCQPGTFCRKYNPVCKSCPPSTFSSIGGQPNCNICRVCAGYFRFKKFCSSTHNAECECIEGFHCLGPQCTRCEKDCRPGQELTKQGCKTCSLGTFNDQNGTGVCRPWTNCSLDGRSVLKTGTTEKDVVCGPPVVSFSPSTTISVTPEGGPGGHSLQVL

T2: recombinant mouse mFLT3 protein (mouse, UniProt Q00342 28-544, limits assumed)
T2 sequence (looked up): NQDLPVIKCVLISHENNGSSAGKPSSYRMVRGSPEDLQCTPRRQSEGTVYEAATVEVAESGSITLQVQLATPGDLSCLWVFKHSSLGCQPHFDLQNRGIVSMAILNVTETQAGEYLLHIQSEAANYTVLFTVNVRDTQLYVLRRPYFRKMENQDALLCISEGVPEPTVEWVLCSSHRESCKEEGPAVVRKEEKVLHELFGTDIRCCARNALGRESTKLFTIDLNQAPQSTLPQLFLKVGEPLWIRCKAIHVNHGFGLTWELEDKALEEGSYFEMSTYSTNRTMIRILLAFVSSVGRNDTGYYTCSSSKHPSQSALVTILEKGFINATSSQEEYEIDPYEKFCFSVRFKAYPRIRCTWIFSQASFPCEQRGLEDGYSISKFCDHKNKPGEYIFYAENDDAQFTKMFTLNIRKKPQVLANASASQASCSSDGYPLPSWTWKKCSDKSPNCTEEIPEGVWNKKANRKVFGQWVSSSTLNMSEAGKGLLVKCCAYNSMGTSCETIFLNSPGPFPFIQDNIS


Legend:
anti-mIgG [1] = molecular target: T3, anti-mIgG; experiment: ELISA: plate-bound anti-mIgG (10ug/ml), detection anti-mIgG-HRP (1:1000)
T3 construct: capture antibody of the mFc ELISA; also called Capture Ab: anti-mIgG(10ug/ml)
Excerpt: (§1) Recombinant mFLT3L protein was used to generate a standard curve. […] A mouse whole IgG was used to generate a standard curve. […] Recombinant m4-1BBL protein was used to generate a standard curve.
Recombinant mFLT3L protein was used to generate a standard curve. […] A mouse whole IgG was used to generate a standard curve. […] Recombinant mOX40L protein was used to generate a standard curve.

anti-mIgG [2] = molecular target: T3, anti-mIgG; experiment: as above; remark: listed apart in the source
Excerpt: as §1

[3] = molecular target: T1, recombinant mouse m4-1BB protein; experiment: Dual ELISA: capture anti-FLT3L (R&D AF427), detection with m41BB-His (Acro), tertiary anti-His/HRP (Abcam)
Procedure: Capture was performed with an anti-FLT3L antibody, followed by detection of the co-stimulatory domain with a his-tagged recombinant protein, and visualized using an anti-his/HRP antibody.

[4] = molecular target: T1, recombinant mouse m4-1BB protein; experiment: ELISA: plate-bound m41BB (3.3ug/ml), detection anti-m41BBL (1:1000) and anti-goat IgG (1:10,000)
Excerpt: as §1

[5] = molecular target: T2, recombinant mouse mFLT3 protein; experiment: Octet biolayer interferometry, mFLT3-his captured on the sensor
Excerpt: Octet was used to determine on-/off-rates and binding affinities to the target receptors.

Row | EC50 (read off the curve) (anti-mIgG [1]) [nM] | EC50 (read off the curve) (anti-mIgG [2]) [nM] | EC50 (read off the curve) [3] [nM] | EC50 (read off the curve) [4] [nM] | Binder | binding result [5]
1 | ~7 | ~7 | ~1 | ~9 | mFLT3L-Fc-4-1BBL chimeric protein (Fc fusion, murine;mouse (printed as mFc), UniProt P49772 27-189, looked up, extracellular domain;domain: hinge-CH2-CH3 Fc domain; Expressed in 293 cells, purified on protein A; also called murine FLT3L-Fc-4-1BBL) GTPDCYFSHSPISSNFKVKFRELTDHLLKDYPVTVAVNLQDEKHCKALWSLFLAQRWIEQLKTVAGSKMQTLLEDVNTEIHFVTSCTFQPLPECLRFVQTNISHLLKDTCTQLLALKPCIGKACQNFSRCLEVQCQPDSSTLLPPRSPIALEATELPEPRPRQVPRDCGCKPCICTVPEVSSVFIFPPKPKDVLTITLTPKVTCVVVDISKDDPEVQFSWFVDDVEVHTAQTQPREEQFNSTFRSVSELPIMHQDWLNGKEFKCRVNSAAFPAPIEKTISKTKGRPKAPQVYTIPPPKEQMAKDKVSLTCMITDFFPEDITVEWQWNGQPAENYKNTQPIMNTNGSYFVYSKLNVQKSNWEAGNTFTCSVLHEGLHNHHTEKSLSHSPGKRTEPRPALTITTSPNLGTRENNADQVTPVSHIGCPNTTQQGSPVFAKLLAKNQASLCNTTLNWHSQDGAGSSYLSQGLRYEEDKKELVVDSPGLYYVFLELKLSPTFTNTGHKVQGWVSLVLQAKPQVDDFDNLALTVELFPCSMENKLVDRSWSQLLLLKAGHRLSVGLRAYLHGAQDAYRDWELSYPNTTSFGLFLVKPDNPWE | 
2 |  |  |  |  | mCD40L-Fc (Acro) (Fc fusion, mouse, UniProt P27548 112-260, looked up, soluble part fused to Fc; also called commercially available mCD40L-Fc (Acro Biosystems)) fusion chain: MQRGDEDPQIAAHVVSEANSNAASVLQWAKKGYYTMKSNLVMLENGKQLTVKREGLYYVYTQVTFCSNREPSSQRPFIVGLWLKPSSGSERILLKAANTHSSSQLCEQQSVHLGGVFELQAGASVFVNVTEASQVIHRVGFSSFGLLKL | no binding (tested: concentration not printed)
